Measured values as given in the DeepSol protein solubility set.

Test: soluble on expression in E. coli; label from the status in PepcDB or PDB records

Sequence | soluble on expression in E. coli
MGSDKIHHHHHHMSDIIQFPNSSKKLYKDIKRAEQDQNYDLMYEYIVQYERQFELTEEIAMMKCRMLYETGSFLELREETIVLLKTGIQQYDALMIYYVKSLIGLGQYFEAVEVIHQIIDEVKDHKTRMALHPLKEFAKSKLIEDEKRLTQSLTDFDTLSMREQTHLILKLIDNGHFQFQETVLYILKSNTYSYNLISLMIEYLRFANCTQELTIEKYGMDVTFVPANLNGLEHTTLKEKVIPNVMETLNDGALHIAEEAHHIMNNHSIMIYPIDIETLFETNKWINAYECYFKNMLGLKCELQSIDAFNFIQQLDLNNNS | not soluble
MKSRFSARQQNSDNTADENKSTTTAVLLTNLGSPDEPTTSAVRRYLREFLSDTRVVEIPRLIWLLILHGIILRIRPAKSAKLYQTVWQDDGAPLISITAAQKEKMATKIKSQYGDNVIVDFAMRYGNPSIASVLQKFQQQGVDKLVVLPLYPQYAGPTTASTFDAVSKELQKWRYIPSIHFLNTYHNNPFYIQALAETVKEHVASHGKPERLVLSYHGMPELFHKWGDPYYDFCQE | not soluble
MEVMRGVRVIEGMNGGRFPYCNVVVVGDVVIDAGAGLEVMRKVNASLLVLSHLHPDHSSGAWLFKDVLAPAEGRITLDTLARRFVAPDLVESWKRFISAATGLREFECERYEEGVVVKEPEIVAVPVKGHTMDHHVFLIEQKVLFGADVDLTSFGPFYGNPEADPYLFEREMDKLLDIDFEIFVSAHSKPVFGKELEHHHHHH | not soluble
MKRSIAPLLVCPACLPKERPLELTATAEADGDITAGHLSCKGCRRRFPIRDGIAVLLPDPDTGPSGGQWKYEEQGTLATYLWSHFADLAGDPEAGDAYASWASALAGNAETSLDAGCAVGRLTFELGQRSGLAVGFDLSLTFIRAARQLARERQIRFSLPREGNLRDEFRLTLPDCWRTDEVEFVVADALAIPFARETFDRTASLNLIDRVSYPLAHLYEMNRVARLSGASFLLSDPFSWSTANAPEEKWLGGTESGPYSGRGMDNVKAILGGKEAIIAPPWTVAREGSVWWKIRSHRNHFELIRSEFLVAERLEHHHHHH | not soluble
FSDILEDRIERLNACFAKAIARYNYPGVYRGVFPVKCNQERHLIEDLVKFGKPHQFGLEAGSKPELMIALAVLDTPGALLVCNGYKDREYIETAMLAQRLGQTPIIVLEQIEEVDLVIDANRQLGIKPILGVRAKLSTQGMGRWGASSGDRAKFGLTMPEVIEAVDKLREANLLDSLQLMHFHIGSQISAINVIKDAIQEASRIYVELAMLGADMKYLDVGGGLGVDYDGSQTNFYASKNYNMQNYANDIVAELKDTCAERQITVPTLISESGRAIAS | not soluble
GMPELAVQKVVVHPLVLLSVVDHFNRIGKVGNQKRVVGVLLGSWQKKVLDVSNSFAVPFDEDDKDDSVWFLDHDYLENMYGMFKKVNARERIVGWYHTGPKLHKNDIAINELMKRYCPNSVLVIIDVKPKDLGLPTEAYISVEEVHDDGTPTSKTFEHVTSEIGAEEAEEVGVEHLLRDIKDTTVGT | soluble
MGSDKIHHHHHHMYSIVEGDRVLEIGFMEHFMFLDFPTLVDIPIGLPKKGERECDRLTRRILSKRAASVFTVPCRVAVYRESYEDALRVNRECQGKGFPVQFWHIVEKVREVDVFLRSYPDLSDQIRESHPELCFLRISSKMMKSKHTREGLNQRIEILREHLVFDVENLQRICREYRIHIHDVLDSLVLALAQQFPLERIPEDPPLDEHGLPMQIIAPARTQRSPNPE | not soluble
MIIFSGGTGTPKLLDGLKEILPEEELTVVVNTAEDLWVSGNLISPDLDTVLYLFSDQIDRKRWWGIENDTFGTYERMKELGIEEGLKLGDRDRATHIIRSNIIRDGASLTDSTVKLSSLFGIKANILPMSDDPVSTYIETAEGIMHFQDFWIGKRGEPDVRGVDIRGVSEASISPKVLEAFEKEENILIGPSNPITSIGPIISLPGMRELLKKKKVVAVSPIIGNAPVSGPAGKLMPACGIEVSSMGVAEYYQDFLDVFVFDERDRADEFAFERLGCHASRADTLMTSTEKSKELAEIVVQAFLEHHHHHH | soluble
MLIFKIFRRSEWDDFRRAGATAGAPVDLADGYIHFSTAAQVAETAAKHFTAESDLVLVAIDPDRAGPDLKWEPSRGEQLFPHLYRRLTLDDVVWDKSLPLGATGHIFPEGLWLEHHHHHH | soluble
MTDVTSPVVDEKPCFGANPQIFKLGLGKQHILAHDIGQGSQCRNLPTCRCEGLDLHFWRKMCKNCGCRMDEHDVVLPNEFDHAQIVIGRLFGAREHFEKVLTKPGMYKPNEQNETKENNMMSTRSQPTAVYNYKMASSDSESERGGSNNKENVQYAWAPLPDKNLVSRYMKALPEDERPLVGSKGEQNRKSRLQFQLPLYDCNVEDARFVEEKDVKTLQNFVENVRNNVIGVGRVVEIGKDSDNYGDNENTNEFEKSMTAALKGLKIGETDCKDCNEMMETGDIGVECHHHSTTDTYHPNCFRCETCRQLLVDNIYFFYKNKYYCGRHYADQLYPRCAGCDELIFANEYTFAEEKSWHFDHFACYKCDFKLGGSRYMTRDENPFCLDCYLKHFAKTCDTCQSKIGPDEKRLNYNETHWHAEERCFQCVQCKMNLIGKKFMLKNHKLLCSSQCKANYNSANPDDQL | not soluble
MSLTQREEELARVLSGPEFATIRPDDLSVLDYSLLTLRRARLLNGAGFAANSLWLGRGDSARFPEFLRTMGWIGAYDLSLLNVLVSHQIAGDALLSHGGPEQLDAWAGEIDAMERMYCFAGSELLAGSDLKRVRTTAVYDPHGRSLVLNTPRPADSKVWTGNSLHTGDVAMVLARLEVGGRDEGHHWLRVPLREAGAVLPGVRIGRAEPKGGVTANQTGVLTFTDHRLPLSALMNRWASIDEDGTYRSPLPRHRRFEECLATFTHERLFPSVGAAYAQLLACTITTRFAAVKQTFGRPLIGHEHYRMRLSAAVGRSLAARHAMTALAEVAVARSAEGAPARDQVLHALISCGKSGCTGDARQTLAETRELCGGLGYHDANQIAPLLHDYEIAVTFGGDNTVLGYQATRFALREGHHHHHH | not soluble
MATQARLPLPVGSTTSVSVVIPAKNVAAYVGETLASALAQGEVTEVIVVDDGSTDNTIAIVRAIRDPRLRLMTNDSAGVSAARNLGARHASGEWLLFLDADDRLRPGAVAALLAAARGAPRAVLVYGDYNTIDSEGRQVGRRDLLKGRRKPSGDVLTRLAASNFIVNGGIALARAEAFRAIGGFDTSLRYCEDWHCWCRLAAIGEFEFAPKLLLDYRLHTANTMNAAVRTPQDFFPAIARVFDDGLILARLPEGTAARLRQAAEIHLVTYSAMQAVRFGRYRQAFTYLGMVGRRSLKSLPRSALRVALACFGILEHHHHHH | not soluble
MVAGLTNGELIAPMTYEETMTSDFFEAWFQKFLLPTLTTPSVIIMDNARFHRMGKLELLCEEFGYKLLPLPPYSPEYNPIEKTWAHIKKHLKKVLPSCNTFYEALLSCSCFNLEHHHHHH | not soluble
MCINLQKMCKKCAKMCKICAKVCKKCAKNVQKKCKKCGKMCKKCAKKCLKKSKFSDPRNPKMLPTSLLVCSTGIPIECSAELLSKFKTRRI | soluble
MSTPVDLTEGLDGAKLAVTVLMIRDSPTGLEVYVQERVSSMPTFPNATVFPGGGVDPRDFELDGVESEHETFGGPSLMHWARSLGTNRNRARALLFAAARELFEETGTLLATHSDGTPIPDATQYHPQRLALESHRLSLSQVLARHDLTLRSEWLRPSTRWVSPETDEKRFDMFAFVAVQPPGQEPDGNTREAASTGWFSPSLILDGWRAGLIRLVIPTWAQLLILSRFDCVRDVLEFLRRADMTPIIGDPVDDPRFEEFYSFTPPERF | not soluble
MAHHHHHHGTEKTPDDVFKLAKDEKVEYVDVRFCDLPGIMQHFTIPASAFDKSVFDDGLAFDGSSIRGFQSIHESDMLLLPDPETARIDPFRAAKTLNINFFVHDPFTLEPYSRDPRNIARKAENYLISTGIADTAYFGAEAEFYIFDSVSFDSRANGSFYEVDAISGWWNTGAATEADGSPNRGYKVRHKGGYFPVAPNDQYVDLRDKMLTNLINSGFILEKGHHEVGSGGQAEINYQFNSLLHAADDMQLYKYIIKNTAWQNGKTVTFMPKPLFGDNGSGMHCHQSLWKDGAPLMYDETGYAGLSDTARHYIGGLLHHAPSLLAFTNPTVNSYKRLVPGYEAPINLVYSQRNRSACVRIPITGSNPKAKRLEFRSPDSSGNPYLAFSAMLMAGLDGIKNKIEPQAPVDKDLYELPPEEAASIPQTPTQLSDVIDRLEADHEYLTEGGVFTNDLIETWISFKRENEIEPVNIRPHPYEFALYYDV | soluble
